For this test, the target named is hematopoietic form of CD44 (CD44-H) fused to CFP or YFP (human) (UniProt P16070). Put plainly: FRET or BRET. (In general: Bioluminescence resonance energy transfer reports proximity on the nanometre scale.)

Consider “hematopoietic form of CD44 (CD44-H) fused to CFP or YFP (from UniProt P16070-12 21-361) (receptor)”, for which the FRET efficiency (E) with nHA followed by oHA was -15.3%.

The record behind these values is article PMC3522304.
